Laboratory results as given in patent US20250340637A1 (ABPRO, published 2025).
Where a chain is given by its changes, count along the chain named. Names may count otherwise. Read-outs that look alike come from different tables or passages of the source.

Tests used:
Experiment in all cases: SPR, Biacore 8K; CD3 Affinity column: Hi
[1] = biological target: T1, HuCD3E (Homo sapiens, UniProt P07766 23-126, limits assumed)
T1 construct: Recombinant analyte in SPR and antigen in ELISA; also called human CD3; human CD3 epsilon
T1 sequence (P07766 23-126 limits assumed): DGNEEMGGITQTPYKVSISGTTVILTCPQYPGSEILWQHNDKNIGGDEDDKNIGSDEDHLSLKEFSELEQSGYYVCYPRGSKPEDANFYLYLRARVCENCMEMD

[2] = biological target: T1, HuCD3E; remark: listed apart in the source
Method: Initially, the affinity measurement of the anti-CD3 clones were determined using a Surface Plasmon Resonance (SPR) biosensor, Biacore 8K (GE Healthcare). The equilibrium dissociation constant (KD) was calculated from the ratio of kd over ka. To determine the contribution of a specific residue to antibody affinity and expression, paratope mapping was performed by screening of NNK libraries. In brief, the VH and VL of the parental antibody were searched by using NCBI Ig-Blast (www.ncbi.nlm.nih.gov/projects/igblast/) and CDRs were defined by the KABAT delineation system. All residues within CDRs were defined and mutated by NNK method. Each individual NNK library was generated per residue based on the FASEBA platform with a theoretical diversity at 20. The DNA encoding both heavy chain and light chain were inserted into a mammalian expression vector, transfected into CHO-S cells, and stable clones of highest expression were selected. Supernatants were collected from shaker flasks and purified on protein A affinity chromatography.
Affinity ranking. Binding between the parental and affinity-tuned bispecific antibodies and human and cyno target proteins (HER2 and CD3) was validated by ELISA, and a Biacore 8K was used to study the kinetics of the interaction between the antigen and the bispecific antibodies.

[3] = biological target: T1, HuCD3E; remark: listed apart in the source

B1: ABP100s.1 (antibody, V domains shown)
VH: EVQLVESGGGLVQPGGSLRLSCAASGFTFNTYAMNWVRQAPGKGLEWVARIRSKYNNYATYYADSVKGRFTISRDDSQSSLYLQMNSLKTEDTAVYYCVRHGNFGNSYVSWFAYWGQGTLVTVSS
VL: QAVVTQEPSFSVSPGGTVTLTCGSSTGAVTTSNYANWVQQTPGQAFRGLIGGTNKRAPGVPDRFSGSLIGDKAALTITGAQADDESDYFCALWYSNLWVFGGGTKLTVL
[1]
  Kd: < 10 nM

B2: ABP100s.2 (antibody, V domains shown)
VH: B1 VH with Q78K
VL: B1 VL
[1]
  Kd: < 10 nM

B3: ABP100s.3 (antibody, V domains shown)
VH: B1 VH with Q13K, K89R, T90A
VL: B1 VL
[1]
  Kd: < 10 nM

B4: ABP100s.4 (antibody, V domains shown)
VH: B1 VH with Q13K, S77A, Q78K, K89R, T90A
VL: B1 VL
[1]
  Kd: < 10 nM

B5: ABP100s.13 (antibody, V domains shown)
VH: B1 VH
VL: QAVVTQEPSLTVSPGGTVTLTCGSSTGAVTTSNYANWVQQKPGQAFRGLIGGTNKRAPWTPARFSGSLIGDKAALTLSGAQPEDEAEYFCALWYSNLWVFGGGTKLTVL
[2]
  Kd: < 10 nM

B6: ABP100s.21 (antibody, V domains shown)
VH: B1 VH
VL: B1 VL with P58S, I69L, F89Y
[2]
  Kd: < 10 nM

B7: ABP100s.22 (antibody, V domains shown)
VH: B1 VH with Q78K
VL: B1 VL with P58S, I69L, F89Y
[2]
  Kd: < 10 nM

B8: ABP100s.23 (antibody, V domains shown)
VH: B1 VH with Q13K, K89R, T90A
VL: B1 VL with P58S, I69L, F89Y
[2]
  Kd: < 10 nM

B9: ABP100s.24 (antibody, V domains shown)
VH: B1 VH with Q13K, S77A, Q78K, K89R, T90A
VL: B1 VL with P58S, I69L, F89Y
[2]
  Kd: < 10 nM

B10: ABP100s.5.4 (antibody, V domains shown)
VH: B1 VH with R19K, G68D, Q78K, S79N, S80T, L81A
VL: B5 VL with A2T, G23R, W59G, T60V, I69L, D71G, A80V, E87I
[1]
  Kd: < 10 nM

B11: 32G4-V8 x huSP34-v5 (bispecific antibody, V domains shown)
VH: B1 VH with R19K, G68D, Q78K, S79N, S80T, L81A
VL: QTVVTQEPSLTVSPGGTVTLTCRSSTGAVTTSNYANWVQQKPGQAFRGLIGGTNKRAPGVPARFSGSLLGGKAALTLSGVQPEDEAIYFCALWYSNLWVFGGGTKLEIK
notes: The name reads as 32G4-V8 arm x huSP34-v5 arm
[3]
  Kd: < 10 nM

B12: 32G4-V8 x huSP34-v5 (N297A, K322A) (bispecific antibody, V domains shown)
VH: B1 VH with R19K, G68D, Q78K, S79N, S80T, L81A
VL: B11 VL
notes: The name carries the substitutions N297A, K322A
[3]
  Kd: < 10 nM

B13: 32G4-V8-v5.1 (antibody, V domains shown)
VH: B1 VH with R19K, G68D, Q78K, S79N, S80T, L81A, A113G
VL: B11 VL with E107T, I108V, K109L
[3]
  Kd: < 10 nM

B14: 47D10-V7 x huSP34-v5 (bispecific antibody, V domains shown)
VH: B1 VH with R19K, G68D, Q78K, S79N, S80T, L81A
VL: B11 VL
notes: The name reads as 47D10-V7 arm x huSP34-v5 arm
[3]
  Kd: < 10 nM

B15: 47D10-V7 x huSP34-v5 (N297A, K322A) (bispecific antibody, V domains shown)
VH: B1 VH with R19K, G68D, Q78K, S79N, S80T, L81A
VL: B11 VL
notes: as for B12
[3]
  Kd: < 10 nM

B16: 47D10-V7-v5.1 (antibody, V domains shown)
VH: B1 VH with R19K, G68D, Q78K, S79N, S80T, L81A, A113G
VL: B11 VL with E107T, I108V, K109L
[3]
  Kd: < 10 nM

B17: ABP100s.5 (antibody, V domains shown)
VH: B1 VH with R19K, G68D, Q78K, S79N, S80T, L81A
VL: B11 VL
[1]
  Kd: < 10 nM

B18: ABP100s.5.1 (antibody, V domains shown)
VH: B1 VH with R19K, G44C, G68D, Q78K, S79N, S80T, L81A
VL: B11 VL with G102C
[1]
  Kd: < 10 nM

B19: ABP100s.5.2 (antibody, V domains shown)
VH: B1 VH with R19K, G68D, Q78K, S79N, S80T, L81A, Q117C
VL: B11 VL with A45C
[1]
  Kd: < 10 nM

B20: ABP100s.6 (antibody, V domains shown)
VH: B1 VH with R19K, G68D, Q78K, S79N, S80T, L81A
VL: B11 VL with I87E
[1]
  Kd: < 10 nM

B21: ABP100s.7 (antibody, V domains shown)
VH: B1 VH with R19K, P41S, G68D, Q78K, S79N, S80T, L81A
VL: B11 VL
[1]
  Kd: < 10 nM

B22: ABP100s.10.1 (antibody, V domains shown)
VH: B1 VH with R19K, G44C, G68D, Q78K, S79N, S80T, L81A
VL: B11 VL with G102C, E107T, I108V, K109L
[1]
  Kd: < 10 nM

B23: ABP100s.10.2 (antibody, V domains shown)
VH: B1 VH with R19K, G44C, G68D, Q78K, S79N, S80T, L81A
VL: B11 VL with G102C, E107T, I108V, K109L
[1]
  Kd: < 10 nM

B24: ABP100s.10.3 (antibody, V domains shown)
VH: B1 VH with R19K, G44C, G68D, Q78K, S79N, S80T, L81A
VL: B11 VL with G102C, E107T, I108V, K109L
[1]
  Kd: < 10 nM

B25: anti-HER2×CD3 BsAb comprising the anti-CD3 VH and VL sequences of ABP100s.10.0 (bispecific antibody, V domains shown)
VH 1: not shown
VL 1: not shown
VH 2: B1 VH with R19K, G44C, G68D, Q78K, S79N, S80T, L81A
VL 2: B11 VL with G102C, E107T, I108V, K109L
notes: Only the four variable domains are tied to the tested molecule; also called 10.0 clone; parental construct
[1]
  Kd: < 10 nM

B26: ABP100s.11.0 (antibody, V domains shown)
VH: EVQLLESGGGLVQPGGSLRLSCAASGFTFNTYAMNWVRQAPGKGLEWVSRIRSKYNNYATYYADSVKDRFTISRDNSKNTLYLQMNSLRAEDTAVYYCAKHGNFGNSYVSWFAYWGQGTTVTVSS
VL: B5 VL with G23R, V38F, F46P, G48T, G51Y, I69L, D71G, F89Y
[3]
  Kd: < 10 nM

B27: ABP100s.12.0 (antibody, V domains shown)
VH: B26 VH with G44C
VL: B5 VL with G23R, V38F, F46P, G48T, G51Y, I69L, D71G, F89Y, G102C
[3]
  Kd: < 10 nM

B28: ABP100s.12.5 (antibody, V domains shown)
VH: B26 VH with G44C
VL: B5 VL with G23R, V38F, F46P, G48T, G51Y, I69L, D71G, F89Y, G102C
[3]
  Kd: < 10 nM

B29: ABP100s.11.5 (antibody, V domains shown)
VH: B26 VH
VL: B5 VL with G23R, V38F, F46P, G48T, G51Y, I69L, D71G, F89Y
[3]
  Kd: < 10 nM

B30: ABP100s.14 (antibody, V domains shown)
VH: B1 VH with Q78K
VL: B5 VL
[2]
  Kd: < 10 nM

B31: ABP100s.15 (antibody, V domains shown)
VH: B1 VH with Q13K, K89R, T90A
VL: B5 VL
[2]
  Kd: < 10 nM

B32: ABP100s.16 (antibody, V domains shown)
VH: B1 VH with Q13K, S77A, Q78K, K89R, T90A
VL: B5 VL
[2]
  Kd: < 10 nM

B33: ABP100s.17 (antibody, V domains shown)
VH: B1 VH
VL: B5 VL with R56K, P58S, I69L, F89Y
[2]
  Kd: < 10 nM

B34: ABP100s.18 (antibody, V domains shown)
VH: B1 VH with Q78K
VL: B5 VL with R56K, P58S, I69L, F89Y
[2]
  Kd: < 10 nM

B35: ABP100s.19 (antibody, V domains shown)
VH: B1 VH with Q13K, K89R, T90A
VL: B5 VL with R56K, P58S, I69L, F89Y
[2]
  Kd: < 10 nM

B36: ABP100s.20 (antibody, V domains shown)
VH: B1 VH with Q13K, S77A, Q78K, K89R, T90A
VL: B5 VL with R56K, P58S, I69L, F89Y
[2]
  Kd: < 10 nM
